Test results: patent US7642231 (MAYO FOUNDATION FOR MEDICAL EDUCATION AND RESEARCH A …, dated 2010)
Where two headings read alike, the source gives them in different places. Numbered stars: 1 amine (or outer) side, 2 acyl side, 3 side chain; on linkers, the order of the positions; unused ones are H or OH. Square brackets hold non-standard residues; d marks the D form. Ends that are not written are not given here. dneoTrp = D-neo-Trp, (2R)-2-amino-3-(1H-indol-4-yl)propanoic acid, O=C([C@@H](Cc1cccc2[nH]ccc12)N[*:1])[*:2]; Ala(indol-4-yl) = N[C@@H](Cc1cccc2[nH]ccc12)C(=O)O; 1Nal = N[C@@H](Cc1cccc2ccccc12)C(=O)O; NMeR = CN[C@@H](CCCNC(=N)N)C(=O)O; Tle = CC(C)(C)[C@H](N)C(=O)O

B1: NT(9-13) (peptide)
peptide: RPYIL
notes: Synthetic pentapeptide, residues 9-13 of neurotensin
B2: Eisai (peptide)
peptide: [NMeR]KPW[Tle]L
notes: Hexapeptide N-methyl-Arg, L-Lys, L-Pro, L-Trp, tert-Leu, L-Leu (Tsuchiya et al., EP application 89104302.8); also called Eisai compound; Eisai analog
B3: NT(8-13) (peptide)
peptide: RRPYIL
notes: Synthetic hexapeptide, residues 8-13 of neurotensin

Legend:
[1] = biological target: NT binding sites within rat brain (PAG and rest of brain homogenates) (rat); assay: 0.3 nM [125I]NT binding to PAG homogenate of control rats
[2] = biological target: NT binding sites within rat brain (PAG and rest of brain homogenates) (rat); assay: 0.3 nM [125I]NT binding to PAG homogenate of NT69L-treated rats
[3] = biological target: NT binding sites within rat brain (PAG and rest of brain homogenates) (rat); assay: 0.3 nM [125I]NT binding to rest-of-brain homogenate of NT69L-treated rats
human NTR1 [4] = biological target: T1, human NTR1 (human, UniProt P30989 1-418); assay: cell-based or functional assay
rat NTR1 [5] = biological target: T2, rat NTR1 (rat, UniProt P20789 1-424); assay: cell-based or functional assay
[6] = biological target: Dopamine receptors, human brain tissue (human) (UniProt P14416); assay: radiolabeled competitive binding assay, human brain tissue
[7] = biological target: adrenergic α2 receptors, human brain tissue (human); assay: as above
[8] = biological target: T3, 5HT2A receptor in human brain tissue (human, UniProt P28223 1-471); assay: competition with [3H]ketanserin, human brain tissue
T3 construct: whole, on cells; Native receptor in human brain tissue, labeled with [3H]ketanserin; also called serotonin receptor

human NTR1 [9] = biological target: T1, human NTR1; assay: competition with [3H]NT, membranes of CHO-K1 cells expressing human NTR1
rat NTR1 [10] = biological target: T2, rat NTR1; assay: competition with [3H]NT, membranes of CHO-K1 cells expressing rat NTR1
Description: (§1) For binding assays, crude membranal preparations were prepared by centrifugation of the cellular pellet at 35,600×g for ten minutes. The supernatant was decanted and discarded, and the cellular pellet was resuspended in 2 mL of Tris-HCl, 1 mM EDTA (pH 7.4) followed by homogenization with a Brinkmann Polytron at setting 6 for ten seconds. Centrifugation was repeated as above and the supernatant was decanted and discarded. The resulting final cellular pellet was resuspended in 50 mM Tris-HCl, 1 mM EDTA, 0.1% bovine serum albumin, and 0.2 mM bacitracin.
(§2) Incubation was at 20° C. for 30 minutes. Each reaction was terminated by addition of cold 0.9% NaCl (5×1.5 mL) followed by rapid filtration through a GF/B filter strip that had been pretreated with 0.2% polyethylenimine.

rat NTR1 [11] = biological target: T2, rat NTR1; assay: radiolabeled competitive binding assay, CHO cells expressing rat NTR (repeats Table II)
Description: as §1, §2

human NTR1 [12] = biological target: T1, human NTR1; assay: radiolabeled competitive binding assay, CHO cells expressing human NTR (repeats Table II)
Description: as §1, §2

human NTR1 [13] = biological target: T1, human NTR1; assay: cell-based or functional assay; remark: listed apart in the source
human NTR1 [14] = biological target: T1, human NTR1; assay: competition with [3H]NT, membranes of CHO-K1 cells expressing human NTR1
Description: as §1, §2

[15] = biological target: adrenergic α1 receptors, human brain tissue (human); assay: radiolabeled competitive binding assay, human brain tissue
human NTR1 [16] = biological target: T1, human NTR1; assay: competition with [3H]NT, CHO-K1 membranes; receptor not given, human fits Table II
Description: as §1, §2

human NTR1 [17] = biological target: T1, human NTR1; assay: cell-based or functional assay; remark: listed apart in the source
human NTR1 [18] = biological target: T1, human NTR1; assay: competition with [3H]NT, CHO-K1 membranes; receptor not given, human taken from the context
Description: as §1, §2

T1 sequence (P30989 whole entry): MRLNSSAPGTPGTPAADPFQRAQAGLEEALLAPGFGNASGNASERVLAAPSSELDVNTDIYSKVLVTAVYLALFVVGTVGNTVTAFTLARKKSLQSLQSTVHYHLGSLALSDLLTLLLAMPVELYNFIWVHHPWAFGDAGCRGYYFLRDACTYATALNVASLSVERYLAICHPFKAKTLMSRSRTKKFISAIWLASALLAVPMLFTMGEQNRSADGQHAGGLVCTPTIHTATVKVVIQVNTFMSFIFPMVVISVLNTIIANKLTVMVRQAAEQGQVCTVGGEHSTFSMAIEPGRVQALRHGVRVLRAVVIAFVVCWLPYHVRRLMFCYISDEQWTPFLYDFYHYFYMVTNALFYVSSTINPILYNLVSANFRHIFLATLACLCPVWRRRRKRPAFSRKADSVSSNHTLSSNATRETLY
T3 sequence (P28223 whole entry): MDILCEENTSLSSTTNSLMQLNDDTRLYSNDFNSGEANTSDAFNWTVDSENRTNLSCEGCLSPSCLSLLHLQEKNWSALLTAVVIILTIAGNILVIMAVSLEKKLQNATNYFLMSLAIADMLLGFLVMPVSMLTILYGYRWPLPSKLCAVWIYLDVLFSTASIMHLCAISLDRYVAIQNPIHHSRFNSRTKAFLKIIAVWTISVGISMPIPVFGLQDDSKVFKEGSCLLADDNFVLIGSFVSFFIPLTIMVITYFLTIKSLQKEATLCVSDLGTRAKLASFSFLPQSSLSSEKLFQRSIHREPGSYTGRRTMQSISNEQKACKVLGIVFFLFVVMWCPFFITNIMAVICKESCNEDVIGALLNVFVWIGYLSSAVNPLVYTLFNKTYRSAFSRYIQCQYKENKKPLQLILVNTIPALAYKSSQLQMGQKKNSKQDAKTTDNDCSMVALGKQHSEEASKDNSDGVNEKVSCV
T2 sequence (P20789 whole entry): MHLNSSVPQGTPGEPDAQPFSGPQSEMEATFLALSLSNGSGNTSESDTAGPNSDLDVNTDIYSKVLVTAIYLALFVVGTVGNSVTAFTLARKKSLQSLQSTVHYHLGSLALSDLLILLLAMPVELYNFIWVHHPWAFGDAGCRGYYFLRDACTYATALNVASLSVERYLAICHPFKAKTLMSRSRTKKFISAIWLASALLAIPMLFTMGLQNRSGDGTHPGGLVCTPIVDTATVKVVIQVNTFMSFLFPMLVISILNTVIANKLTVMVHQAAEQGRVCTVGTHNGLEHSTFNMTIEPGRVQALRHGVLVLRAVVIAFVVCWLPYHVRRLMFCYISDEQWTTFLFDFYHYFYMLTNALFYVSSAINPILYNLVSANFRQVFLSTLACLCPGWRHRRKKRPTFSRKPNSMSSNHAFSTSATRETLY
Dopamine receptors, human brain tissue (human), sequence (P14416 whole entry): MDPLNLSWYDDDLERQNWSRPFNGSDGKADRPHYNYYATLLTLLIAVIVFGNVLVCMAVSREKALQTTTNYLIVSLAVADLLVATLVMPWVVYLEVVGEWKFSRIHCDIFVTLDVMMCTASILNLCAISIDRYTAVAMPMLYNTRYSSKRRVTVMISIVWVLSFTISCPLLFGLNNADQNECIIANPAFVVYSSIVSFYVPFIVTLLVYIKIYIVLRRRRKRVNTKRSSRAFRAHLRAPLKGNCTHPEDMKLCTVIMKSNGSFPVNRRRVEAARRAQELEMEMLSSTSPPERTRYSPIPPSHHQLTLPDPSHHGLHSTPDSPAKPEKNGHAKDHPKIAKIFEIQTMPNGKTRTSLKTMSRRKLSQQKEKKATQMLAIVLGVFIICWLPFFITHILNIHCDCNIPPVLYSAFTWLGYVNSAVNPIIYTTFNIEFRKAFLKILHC

| Molecule | PI Turnover EC50 (rat NTR1 [5]) [nM] | Kd [8] [nM] | Kd (rat NTR1 [10]) [nM] | Kd (human NTR1 [14]) [nM] | further results |
| --- | --- | --- | --- | --- | --- |
| Neurotensin (NT) (peptide) |  |  |  |  | dpm/µg protein (dpm/µg protein) [1]: 2.34; dpm/µg protein (dpm/µg protein) [2]: 1.89; dpm/µg protein (dpm/µg protein) [3]: 2.1 |
| NT69L (peptide) | 1.34 | 34600 | 0.82 |  | PI Turnover EC50 (human NTR1 [4]): 2.3 nM; PI turnover potency, fold improvement over Eisai analog (human NTR1 [4]): 130 fold; PI turnover potency, fold improvement over Eisai analog (rat NTR1 [5]): 2 fold; Kd [6]: 13300 nM; Kd [7]: 58600 nM; Kd (human NTR1 [9]): 1.55 nM; fold increase in binding affinity over Eisai (human NTR1 [9]): 60 fold; fold increase in binding affinity over Eisai (rat NTR1 [10]): 6 fold; Kd (rat NTR1 [11]): 0.82 nM; Kd (human NTR1 [12]): 1.55 nM |
| B1 |  | 6340 | 46 | 30 | PI Turnover EC50 (human NTR1 [13]): 380 nM; fold weaker than NT(8-13) (rat NTR1 [10]): > 200 fold; fold weaker than NT(8-13) (human NTR1 [14]): > 200 fold |
| [dK]RP[Ala(indol-4-yl)]IL (NT(8-13) analog) [NT67L] | 13 | 7400 | 0.21 |  | Kd [15]: 6900 nM; Kd (rat NTR1 [11]): 0.21 nM |
| RRP[Ala(indol-4-yl)][Tle]L (NT(8-13) analog) [NT65L] |  |  | 0.075 | 0.32 | fold decrease in binding affinity compared to NT64L (human NTR1 [16]): 3 fold |
| RRP[Ala(indol-4-yl)]IL (NT(8-13) analog) [NT64L] | 2.3 | 6600 | 0.1 |  |  |
| RRP[dneoTrp]IL (NT(8-13) analog) [NT64D] |  |  | 3.8 |  |  |
| B2 | 3.1 |  | 5.4 | 95 | PI turnover potency, fold weaker at human than at rat NT receptor (human NTR1 [17]): ~100 fold; PI Turnover EC50 (human NTR1 [13]): 300 nM; fold weaker than at the rat receptor (human NTR1 [14]): ~20 fold |
| RRP[1Nal]IL (NT(8-13) analog) [NT34] |  |  | 0.046 |  |  |
| [dK]RPYIL (NT(8-13) analog) [NT2] |  | 6800 | 0.8 |  |  |
| B3 |  | 4400 |  |  |  |
| RRPWIL [NTW] |  |  | 0.34 | 3.2 | PI Turnover EC50 (human NTR1 [13]): 110 nM; fold reduction in binding affinity compared to NT64L (human NTR1 [18]): > 30 fold |
